Here are results for 21 molecules from publication PMC11081419, “Structural basis of chemokine recognition by the class A3 tick evasin EVA‐ACA1001” (Protein Science : A Publication of the Protein Society, 2024).

Sequences and labels used below:
B1: EVA‐ACA1001 (untagged, for crystallization and cell assays) (natural protein)
chain: ENGEGTTQPDYDNSTDYYNYEDFKCTCPAPHLNNTNGTVMKPIGCYYTCNVTRCTAPDTYPCYNLTEHQAKNLTTSPTTLCAVGNCDHGICVPNGTKELCFKAPNLEE
B2: CCL7 (ligand)
chain: not shown
notes: CCL7, human CC chemokine
B3: CCL18 (ligand, human, UniProt P55774 21-89, looked up)
chain: AQVGTNKELCCLVYTSWQIPQKFIVDYSETSPQCPKPGVILLTKRGRQICADPNKKWVQKYISDLKLNA
notes: CCL18, human CC chemokine
B4: EVA‐ACA1001, Avi-tagged and biotinylated (SPR construct) (natural protein)
chain: ENGEGTTQPDYDNSTDYYNYEDFKCTCPAPHLNNTNGTVMKPIGCYYTCNVTRCTAPDTYPCYNLTEHQAKNLTTSPTTLCAVGNCDHGICVPNGTKELCFKAPNLEE
modifications: biotin on the AVI tag (BirA ligase)
notes: EVA-ACA1001 (Evasin P991), class A3 evasin of Amblyomma cajennense; mass of the untagged protein 11,920 Da (calculated 11,921 Da with five disulfides); also called Evasin P991; full‐length EVA‐ACA1001; not shown: His6, N-terminal, cleaved; SUMO, N-terminal, cleaved
B5: CCL5 (ligand, human, UniProt P13501 24-91, looked up)
chain: SPYSSDTTPCCFAYIARPLPRAHIKEYFYTSGKCSNPAVVFVTRKNRQVCANPEKKWVREYINSLEMS
notes: CCL5, human CC chemokine
B6: CCL26 (ligand, human, UniProt Q9Y258 24-94, looked up)
chain: TRGSDISKTCCFQYSHKPLPWTWVRSYEFTSNSCSQRAVIFTTKRGKKVCTHPRKKWVQKYISLLKTPKQL
notes: CCL26, human CC chemokine
B7: CCL21 (ligand, human, UniProt O00585 24-134, looked up)
chain: SDGGAQDCCLKYSQRKIPAKVVRSYRKQEPSLGCSIPAILFLPRKRSQAELCADPKELWVQQLMQHLDKTPSPQKPAQGCRKDRGASKTGKKGKGSKGCKRTERSQTPKGP
notes: CCL21, human CC chemokine
B8: CCL19 (ligand, human, UniProt Q99731 22-98, looked up)
chain: GTNDAEDCCLSVTQKPIPGYIVRNFHYLLIKDGCRVPAVVFTTLRGRQLCAPPDQPWVERIIQRLQRTSAKMKRRSS
notes: CCL19, human CC chemokine
B9: CCL13 (ligand)
chain: not shown
notes: CCL13, human CC chemokine
B10: CCL22 (ligand, human, UniProt O00626 25-93, looked up)
chain: GPYGANMEDSVCCRDYVRYRLPLRVVKHFYWTSDSCPRPGVVLLTFRDKEICADPRVPWVKMILNKLSQ
notes: CCL22, human CC chemokine
B11: CCL24 (ligand, human, UniProt O00175 27-119, looked up)
chain: VVIPSPCCMFFVSKRIPENRVVSYQLSSRSTCLKAGVIFTTKKGQQFCGDPKQEWVQRYMKNLDAKQKKASPRARAVAVKGPVQRYPGNQTTC
notes: CCL24, human CC chemokine
B12: CCL8 (ligand, human, UniProt P80075 24-99, looked up)
chain: QPDSVSIPITCCFNVINRKIPIQRLESYTRITNIQCPKEAVIFKTKRGKEVCADPKERWVRDSMKHLDQIFQNLKP
notes: CCL8, human CC chemokine
B13: CCL11 (ligand)
chain: not shown
notes: CCL11, human CC chemokine
B14: CCL17 (ligand, human, UniProt Q92583 24-94, looked up)
chain: ARGTNVGRECCLEYFKGAIPLRKLKTWYQTSEDCSRDAIVFVTVQGRAICSDPNNKRVKNAVKYLQSLERS
notes: CCL17, human CC chemokine
B15: CCL1 (ligand, human, UniProt P22362 24-96, looked up)
chain: KSMQVPFSRCCFSFAEQEIPLRAILCYRNTSSICSNEGLIFKLKRGKEACALDTVGWVQRHRKMLRHCPSKRK
notes: CCL1, human CC chemokine
B16: CCL15 (ligand)
chain: QFTNDAETELMMSKLPLENPVVLNSFHFAADCCTSYISQSIPCSLMKSYFETSSECSKPGVIFLTKKGRQVCAKPSGPGVQDCMKKLKPYSI
B17: CCL3 (ligand, human, UniProt P10147 24-92, looked up)
chain: SLAADTPTACCFSYTSRQIPQNFIADYFETSSQCSKPGVIFLTKRSRQVCADPSEEWVQKYVSDLELSA
notes: CCL3, human CC chemokine
B18: CCL23 (ligand)
chain: RVTKDAETEFMMSKLPLENPVLLDRFHATSADCCISYTPRSIPCSLLESYFETNSECSKPGVIFLTKKGRRFCANPSDKQVQVCMRMLKLDTRIKTRKN
B19: CCL4 (ligand, human, UniProt P13236 24-92, looked up)
chain: APMGSDPPTACCFSYTARKLPRNFVVDYYETSSLCSQPAVVFQTKRSKQVCADPSESWVQEYVYDLELN
notes: CCL4, human CC chemokine
B20: CCL16 (ligand, human, UniProt O15467 24-120, looked up)
chain: QPKVPEWVNTPSTCCLKYYEKVLPRRLVVGYRKALNCHLPAIIFVTKRNREVCTNPNDDWVQEYIKDPNLPLLPTRNLSTVKIITAKNGQPQLLNSQ
notes: CCL16, human CC chemokine; The E. coli preparation is described for the crystal; also called human chemokine CCL16; not shown: His6, N-terminal, cleaved; SUMO, N-terminal, cleaved
B21: CCL27 (ligand, human, UniProt Q9Y4X3 25-112, looked up)
chain: FLLPPSTACCTQLYRKPLSDKLLRKVIQVELQEADGDCHLQAFVLHLAQRSICIHPQNPSLSQWFEHQERKLHGTLPKLNFGMLRKMG
notes: CCL27, human CC chemokine

The target in one test is B12. The test can be described thus: cell-based or functional assay.
Conditions: not given
With B1, the “IC50 of EVA-ACA1001 for inhibition of CCL8-stimulated activation of CCR5 (cAMP assay); blocks CCL8 with CCR5” value was ~189 nM.

The target of the next test is B4. Briefly: SPR; screen at a single chemokine concentration: biotinylated Avi-tagged evasin immobilised on a streptavidin-coated CAPture chip (80 response units); 500 nM chemokine flowed for 240 s at 30 uL/min, 600 s dissociation; 25°C; Biacore T100; 10 mM HEPES, 500 mM NaCl, 0.002% Tween 20, 3 mM EDTA, 1 mg/mL carboxymethyl dextran, pH 7.5. The settings on record: both partners purified.
Take B2: the binding result is listed as “binds”.

As for B3, the binding result is reported as “binds”.

The target in the next test is B7. The test can be described thus: SPR; affinity determination: biotinylated Avi-tagged evasin immobilised on a streptavidin-coated CAPture chip; five two-fold increasing chemokine concentrations (31.25-500 nM), 240 s at 30 uL/min, 600 s dissociation; 1:1 binding model; 25°C; 10 mM HEPES, 500 mM NaCl, 0.002% Tween 20, 3 mM EDTA, 1 mg/mL carboxymethyl dextran, pH 7.5; three independent experiments (Table 1 caption: multiple-cycle kinetics). The settings on record: both partners purified.
Broadly, the Kd is the concentration at which binding is half-saturated. In the case of B4, binding was put at a Kd of 6.5 nM.

A further test addresses B4. The test is described as above. The settings on record: both partners purified.
On to B5, for which the Kd came to 0.27 nM and the pKd was 9.55 -log(Kd, M).

For the molecule B6, the Kd came to 1.68 nM and the pKd was 8.77 -log(Kd, M).

For the molecule B7, the pKd was 8.19 -log(Kd, M).

On to B8, for which binding was characterised by a dissociation constant (Kd) of 1.31 nM and the pKd is 8.9 -log(Kd, M).

As to B9, binding was put at a Kd of 0.39 nM and the pKd is 9.41 -log(Kd, M).

Consider B10, for which binding was characterised by a dissociation constant (Kd) of 1.29 nM and the pKd was 8.9 -log(Kd, M).

In the case of B11, the Kd came out at 8.9 nM and the pKd is 8.22 -log(Kd, M).

As to B12, the Kd was found to be 4.76 nM and the pKd is 8.34 -log(Kd, M).

As to B13, binding was put at a Kd of 0.38 nM and the pKd is 9.49 -log(Kd, M).

For B14, the Kd was found to be 1.01 nM and the pKd is 8.99 -log(Kd, M).

On to B15, for which the Kd came out at 21.1 nM and the pKd is 7.71 -log(Kd, M).

On to B16, for which the Kd is 107 nM and the pKd is 7.02 -log(Kd, M).

In the case of B17, the Kd was found to be 1.08 nM and the pKd is 8.99 -log(Kd, M).

As for B18, the Kd was 1.17 nM and the pKd is 8.93 -log(Kd, M).

For B19, the Kd is 1.18 nM and the pKd is 8.93 -log(Kd, M).

As for B20, binding was characterised by a dissociation constant (Kd) of 0.54 nM and the pKd is 9.34 -log(Kd, M).

As for B21, the Kd was determined as 84.8 nM and the pKd is 7.07 -log(Kd, M).

Another test has as its target B1. The test can be described thus: crystal structure; EVA-ACA1001 and CCL16 mixed 1:1.2, complex purified on Superdex 75 in 10 mM HEPES pH 7.5, 150 mM NaCl; crystals from 0.1 M HEPES pH 7.0, 0.5% v/v Jeff ED-2001, 1.1 M sodium malonate; two complexes per asymmetric unit. The settings on record: both partners purified.
By stoichiometry N is commonly meant a count of units in the complex or per binding partner. As to B20, the “stoichiometry N” value came out at 1.

The target of another test is B12. The test can be described thus: cell-based or functional assay.
Conditions: not given
This is another data set of the same source.
For the molecule B1, the “IC50 of EVA-ACA1001 for inhibition of CCL8 (100 nM)-stimulated activation of CCR5 (inhibition of forskolin-induced cAMP, CAMYEL BRET biosensor, Flp-In-CHO cells); blocks CCL8 with CCR5” value was 188 nM and the “pIC50 of EVA-ACA1001 for inhibition of CCL8 (100 nM)-stimulated activation of CCR5 (inhibition of forskolin-induced cAMP, CAMYEL BRET biosensor, Flp-In-CHO cells); blocks CCL8 with CCR5” value is 6.51 -log(IC50, M).

For a further test, the target named is B17. The test can be described thus: cell-based or functional assay.
Conditions: not given
As for B1, the “IC50 of EVA-ACA1001 for inhibition of CCL3 (60 nM)-stimulated activation of CCR5 (inhibition of forskolin-induced cAMP, CAMYEL BRET biosensor, Flp-In-CHO cells); blocks CCL3 with CCR5” value came to 94 nM and the “pIC50 of EVA-ACA1001 for inhibition of CCL3 (60 nM)-stimulated activation of CCR5 (inhibition of forskolin-induced cAMP, CAMYEL BRET biosensor, Flp-In-CHO cells); blocks CCL3 with CCR5” value is 7.02 -log(IC50, M).

A further test addresses B19. The test can be described thus: cell-based or functional assay.
Conditions: not given
As to B1, the “IC50 of EVA-ACA1001 for inhibition of CCL4 (80 nM)-stimulated activation of CCR5 (inhibition of forskolin-induced cAMP, CAMYEL BRET biosensor, Flp-In-CHO cells); blocks CCL4 with CCR5” value was 84 nM and the “pIC50 of EVA-ACA1001 for inhibition of CCL4 (80 nM)-stimulated activation of CCR5 (inhibition of forskolin-induced cAMP, CAMYEL BRET biosensor, Flp-In-CHO cells); blocks CCL4 with CCR5” value is 7.07 -log(IC50, M).
